Results taken from the supplement of paper PMC11908140.

B1: library; numbered along this chain (parent)
chain: MRKPRAAVGSGHRKQAASQEGRQKHAKNNSQAKPSACDGLARQPEEVVLQASVSSYHLFRDVAEVTAFRGSLLSWYDQEKRDLPWRRRAEDEMDLDRRAYAVWVSEVMLQQTQVATVINYYTGWMQKWPTLQDLASASLEEVNQLWAGLGYYSRGRRLQEGARKVVEELGGHMPRTAETLQQLLPGVGRYTAGAIASIAFGQATGVVDGNVARVLCRVRAIGADPSSTLVSQQLWGLAQQLVDPARPGDFNQAAMELGATVCTPQRPLCSQCPVESLCRARQRVEQEQLLASGSLSGSPDVEECAPNTGQCHLCLPPSEPWDQTLGVVNFPRKASRKPPREESSATCVLEQPGALGAQILLVQRPNSGLLAGLWEFPSVTWEPSEQLQRKALLQELQRWAGPLPATHLRHLGEVVHTFSHIKLTYQVYGLALEGQTPVTTVPPGARWLTQEEFHTAAVSTAMKKVFRVYQGQQPGTCMGSKRSQVSSPCSRKKPRMGQQVLDNFFRSHISTDAHSLNSAAQ

Variants of: B1
Assay: 8OG:A repair function score (normalized; synonymous = 0, nonsense = -1) (normalized log-likelihood score); higher = more repair activity (WT-like)
Conditions: with 8OG:A DNA repair reporter (GFP) in HEK-293 MUTYH KO cells
Outline: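 Lentiviral MUTYH cDNA NNN codon-scan libraries in HEK-293 MUTYH knockout cells (10 pg/ml doxycycline) were co-transfected with an 8OG:A GFP repair reporter plus mCherry. At 72 h, viable mCherry+ cells were sorted into GFP+ (repair) and GFP− bins, three replicates per tile, then tile amplicons were sequenced. Per-tile Rosace fitness scores became a normalized repair function score anchored on synonymous and nonsense distributions. Synonymous medians were set to 0 and nonsense to -1; variants under 300 counts per million at the start were removed.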

In order of rising “8OG:A repair function score” value:
1. MRKPRAAVGSGHRKQAASQEGRQKHAKNNSQAKPSACDGLARQPEEVVLQASVSSYHLFRDVAEVTAFRGSLLSWYDQEKRDLPWRRRAEDEMDLDRRAYAVWVSEVMLQQTQVATVINYYTGWMQKWPTLQDLASASLEEVNQLWAGLGYYSRGRRLQEGARKVVEELGGHMPRTAETLQQLLPGVGRYTAGAIASIAFGQATGVVDGNVARVLCRVRAIGADPSSTLVSQQLWGLAQQLVDPARPGDFNQAAMELGATVCTPQRPLCSQCPVESLCRARQRVEQEQLLASGSLSGSPDVEECAPNTGQCHLCLPPSEPWDQTLGVVNFPRKASRKPPREESSATCVLEQPGALGAQILLVQRPNSGLLAGLWEFPSVTWEPSEQLQRKALLQELQRWAGPLPATHLRHLGEVVHTFSHIKLTYQVYGLALEGQTPVTTVPPGARWLTQEEFHTAAVSTAMKKYFRVYQGQQPGTCMGSKRSQVSSPCSRKKPRMGQQVLDNFFRSHISTDAHSLNSAAQ [V465Y]  -1.23
2. MRKPRAAVGSGHRKQAASQEGRQKHAKNNSQAKPSACDGLARQPEEVVLQASVSSYHLFRDVAEVTAFRGSLLSWYDQEKRDLPWRRRAEDEMDLDRRAYAVWVSEVMLQQTQVATVINYYTGWMQKWPTLQDLASASLEEVNQLWAGLGYYSRGRRLQEGARKVVEELGGHMPRTAETLQQLLPGVGRYTAGAIASIAFGQATGVVDGNVARVLCRVRAIGADPSSTLVSQQLWGLAQQLVDPARPGDFNQAAMELGATVCTPQRPLCSQCPVESLCRARQRVEQEQLLASGSLSGSPDVEECAPNTGQCHLCLPPSEPWDQTLGVVNFPRKASRKPPREESSATCVLEQPGALGAQILLVQRPNSGLLAGLWEFPSVTWEPSEQLQRKALLQELQRWAGPLPATHLRHLGEVVHTFSHIKLTYQVYGLALEGQTPVTTVPPGARWLTQEEFHTAAVSTAMKKKFRVYQGQQPGTCMGSKRSQVSSPCSRKKPRMGQQVLDNFFRSHISTDAHSLNSAAQ [V465K]  -1.19
3. MRKPRAAVGSGHRKQAASQEGRQKHAKNNSQAKPSACDGLARQPEEVVLQASVSSYHLFRDVAEVTAFRGSLLSWYDQEKRDLPWRRRAEDEMDLDRRAYAVWVSEVMLQQTQVATVINYYTGWMQKWPTLQDLASASLEEVNQLWAGLGYYSRGRRLQEGARKVVEELGGHMPRTAETLQQLLPGVGRYTAGAIASIAFGQATGVVDGNVARVLCRVRAIGADPSSTLVSQQLWGLAQQLVDPARPGDFNQAAMELGATVCTPQRPLCSQCPVESLCRARQRVEQEQLLASGSLSGSPDVEECAPNTGQCHLCLPPSEPWDQTLGVVNFPRKASRKPPREESSATCVLEQPGALGAQILLVQRPNSGLLAGLWEFPSVTWEPSEQLQRKALLQELQRWAGPLPATHLRHLGEVVHTFSHIKLTYQVYGLALEGQTPVTTVPPGARWLTQEEFHTAAVSTAMKKPFRVYQGQQPGTCMGSKRSQVSSPCSRKKPRMGQQVLDNFFRSHISTDAHSLNSAAQ [V465P]  -1.18
4. MRKPRAAVGSGHRKQAASQEGRQKHAKNNSQAKPSACDGLARQPEEVVLQASVSSYHLFRDVAEVTAFRGSLLSWYDQEKRDLPWRRRAEDEMDLDRRAYAVWVSEVMLQQTQVATVINYYTGWMQKWPTLQDLASASLEEVNQLWAGLGYYSRGRRLQEGARKVVEELGGHMPRTAETLQQLLPGVGRYTAGAIASIAFGQATGVVDGNVARVLCRVRAIGADPSSTLVSQQLWGLAQQLVDPARPGDFNQAAMELGATVCTPQRPLCSQCPVESLCRARQRVEQEQLLASGSLSGSPDVEECAPNTGQCHLCLPPSEPWDQTLGVVNFPRKASRKPPREESSATCVLEQPGALGAQILLVQRPNSGLLAGLWEFPSVTWEPSEQLQRKALLQELQRWAGPLPATHLRHLGEVVHTFSHIKLTYQVYGLALEGQTPVTTVPPGARWLTQEEFHTAAVSTAMKKQFRVYQGQQPGTCMGSKRSQVSSPCSRKKPRMGQQVLDNFFRSHISTDAHSLNSAAQ [V465Q]  -1.17
5. MRKPRAAVGSGHRKQAASQEGRQKHAKNNSQAKPSACDGLARQPEEVVLQASVSSYHLFRDVAEVTAFRGSLLSWYDQEKRDLPWRRRAEDEMDLDRRAYAVWVSEVMLQQTQVATVINYYTGWMQKWPTLQDLASASLEEVNQLWAGLGYYSRGRRLQEGARKVVEELGGHMPRTAETLQQLLPGVGRYTAGAIASIAFGQATGVVDGNVARVLCRVRAIGADPSSTLVSQQLWGLAQQLVDPARPGDFNQAAMELGATVCTPQRPLCSQCPVESLCRARQRVEQEQLLASGSLSGSPDVEECAPNTGQCHLCLPPSEPWDQTLGVVNFPRKASRKPPREESSATCVLEQPGALGAQILLVQRPNSGLLAGLWEFPSVTWEPSEQLQRKALLQELQRWAGPLPATHLRHLGEVVHTFSHIKLTYQVYGLALEGQTPVTTVPPGARWLTQEEFHTAAVSTAMKKRFRVYQGQQPGTCMGSKRSQVSSPCSRKKPRMGQQVLDNFFRSHISTDAHSLNSAAQ [V465R]  -1.13
6. MRKPRAAVGSGHRKQAASQEGRQKHAKNNSQAKPSACDGLARQPEEVVLQASVSSYHLFRDVAEVTAFRGSLLSWYDQEKRDLPWRRRAEDEMDLDRRAYAVWVSEVMLQQTQVATVINYYTGWMQKWPTLQDLASASLEEVNQLWAGLGYYSRGRRLQEGARKVVEELGGHMPRTAETLQQLLPGVGRYTAGAIASIAFGQATGVVDGNVARVLCRVRAIGADPSSTLVSQQLWGLAQQLVDPARPGDFNQAAMELGATVCTPQRPLCSQCPVESLCRARQRVEQEQLLASGSLSGSPDVEECAPNTGQCHLCLPPSEPWDQTLGVVNFPRKASRKPPREESSATCVLEQPGALGAQILLVQRPNSGLLAGLWEFPSVTWEPSEQLQRKALLQELQRWAGPLPATHLRHLGEVVHTFSHIKLTYQVYGLALEGQTPVTTVPPGARWLTQEEFHTAAVSTAMKKWFRVYQGQQPGTCMGSKRSQVSSPCSRKKPRMGQQVLDNFFRSHISTDAHSLNSAAQ [V465W]  -1.07
7. MRKPRAAVGSGHRKQAASQEGRQKHAKNNSQAKPSACDGLARQPEEVVLQASVSSYHLFRDVAEVTAFRGSLLSWYDQEKRDLPWRRRAEDEMDLDRRAYAVWVSEVMLQQTQVATVINYYTGWMQKWPTLQDLASASLEEVNQLWAGLGYYSRGRRLQEGARKVVEELGGHMPRTAETLQQLLPGVGRYTAGAIASIAFGQATGVVDGNVARVLCRVRAIGADPSSTLVSQQLWGLAQQLVDPARPGDFNQAAMELGATVCTPQRPLCSQCPVESLCRARQRVEQEQLLASGSLSGSPDVEECAPNTGQCHLCLPPSEPWDQTLGVVNFPRKASRKPPREESSATCVLEQPGALGAQILLVQRPNSGLLAGLWEFPSVTWEPSEQLQRKALLQELQRWAGPLPATHLRHLGEVVHTFSHIKLTYQVYGLALEGQTPVTTVPPGARWLTQEEFHTAAVSTAMKKSFRVYQGQQPGTCMGSKRSQVSSPCSRKKPRMGQQVLDNFFRSHISTDAHSLNSAAQ [V465S]  -0.646
8. MRKPRAAVGSGHRKQAASQEGRQKHAKNNSQAKPSACDGLARQPEEVVLQASVSSYHLFRDVAEVTAFRGSLLSWYDQEKRDLPWRRRAEDEMDLDRRAYAVWVSEVMLQQTQVATVINYYTGWMQKWPTLQDLASASLEEVNQLWAGLGYYSRGRRLQEGARKVVEELGGHMPRTAETLQQLLPGVGRYTAGAIASIAFGQATGVVDGNVARVLCRVRAIGADPSSTLVSQQLWGLAQQLVDPARPGDFNQAAMELGATVCTPQRPLCSQCPVESLCRARQRVEQEQLLASGSLSGSPDVEECAPNTGQCHLCLPPSEPWDQTLGVVNFPRKASRKPPREESSATCVLEQPGALGAQILLVQRPNSGLLAGLWEFPSVTWEPSEQLQRKALLQELQRWAGPLPATHLRHLGEVVHTFSHIKLTYQVYGLALEGQTPVTTVPPGARWLTQEEFHTAAVSTAMKKNFRVYQGQQPGTCMGSKRSQVSSPCSRKKPRMGQQVLDNFFRSHISTDAHSLNSAAQ [V465N]  -0.54
9. MRKPRAAVGSGHRKQAASQEGRQKHAKNNSQAKPSACDGLARQPEEVVLQASVSSYHLFRDVAEVTAFRGSLLSWYDQEKRDLPWRRRAEDEMDLDRRAYAVWVSEVMLQQTQVATVINYYTGWMQKWPTLQDLASASLEEVNQLWAGLGYYSRGRRLQEGARKVVEELGGHMPRTAETLQQLLPGVGRYTAGAIASIAFGQATGVVDGNVARVLCRVRAIGADPSSTLVSQQLWGLAQQLVDPARPGDFNQAAMELGATVCTPQRPLCSQCPVESLCRARQRVEQEQLLASGSLSGSPDVEECAPNTGQCHLCLPPSEPWDQTLGVVNFPRKASRKPPREESSATCVLEQPGALGAQILLVQRPNSGLLAGLWEFPSVTWEPSEQLQRKALLQELQRWAGPLPATHLRHLGEVVHTFSHIKLTYQVYGLALEGQTPVTTVPPGARWLTQEEFHTAAVSTAMKKMFRVYQGQQPGTCMGSKRSQVSSPCSRKKPRMGQQVLDNFFRSHISTDAHSLNSAAQ [V465M]  -0.396
10. MRKPRAAVGSGHRKQAASQEGRQKHAKNNSQAKPSACDGLARQPEEVVLQASVSSYHLFRDVAEVTAFRGSLLSWYDQEKRDLPWRRRAEDEMDLDRRAYAVWVSEVMLQQTQVATVINYYTGWMQKWPTLQDLASASLEEVNQLWAGLGYYSRGRRLQEGARKVVEELGGHMPRTAETLQQLLPGVGRYTAGAIASIAFGQATGVVDGNVARVLCRVRAIGADPSSTLVSQQLWGLAQQLVDPARPGDFNQAAMELGATVCTPQRPLCSQCPVESLCRARQRVEQEQLLASGSLSGSPDVEECAPNTGQCHLCLPPSEPWDQTLGVVNFPRKASRKPPREESSATCVLEQPGALGAQILLVQRPNSGLLAGLWEFPSVTWEPSEQLQRKALLQELQRWAGPLPATHLRHLGEVVHTFSHIKLTYQVYGLALEGQTPVTTVPPGARWLTQEEFHTAAVSTAMKKLFRVYQGQQPGTCMGSKRSQVSSPCSRKKPRMGQQVLDNFFRSHISTDAHSLNSAAQ [V465L]  -0.379
11. MRKPRAAVGSGHRKQAASQEGRQKHAKNNSQAKPSACDGLARQPEEVVLQASVSSYHLFRDVAEVTAFRGSLLSWYDQEKRDLPWRRRAEDEMDLDRRAYAVWVSEVMLQQTQVATVINYYTGWMQKWPTLQDLASASLEEVNQLWAGLGYYSRGRRLQEGARKVVEELGGHMPRTAETLQQLLPGVGRYTAGAIASIAFGQATGVVDGNVARVLCRVRAIGADPSSTLVSQQLWGLAQQLVDPARPGDFNQAAMELGATVCTPQRPLCSQCPVESLCRARQRVEQEQLLASGSLSGSPDVEECAPNTGQCHLCLPPSEPWDQTLGVVNFPRKASRKPPREESSATCVLEQPGALGAQILLVQRPNSGLLAGLWEFPSVTWEPSEQLQRKALLQELQRWAGPLPATHLRHLGEVVHTFSHIKLTYQVYGLALEGQTPVTTVPPGARWLTQEEFHTAAVSTAMKKTFRVYQGQQPGTCMGSKRSQVSSPCSRKKPRMGQQVLDNFFRSHISTDAHSLNSAAQ [V465T]  -0.191
12. MRKPRAAVGSGHRKQAASQEGRQKHAKNNSQAKPSACDGLARQPEEVVLQASVSSYHLFRDVAEVTAFRGSLLSWYDQEKRDLPWRRRAEDEMDLDRRAYAVWVSEVMLQQTQVATVINYYTGWMQKWPTLQDLASASLEEVNQLWAGLGYYSRGRRLQEGARKVVEELGGHMPRTAETLQQLLPGVGRYTAGAIASIAFGQATGVVDGNVARVLCRVRAIGADPSSTLVSQQLWGLAQQLVDPARPGDFNQAAMELGATVCTPQRPLCSQCPVESLCRARQRVEQEQLLASGSLSGSPDVEECAPNTGQCHLCLPPSEPWDQTLGVVNFPRKASRKPPREESSATCVLEQPGALGAQILLVQRPNSGLLAGLWEFPSVTWEPSEQLQRKALLQELQRWAGPLPATHLRHLGEVVHTFSHIKLTYQVYGLALEGQTPVTTVPPGARWLTQEEFHTAAVSTAMKKIFRVYQGQQPGTCMGSKRSQVSSPCSRKKPRMGQQVLDNFFRSHISTDAHSLNSAAQ [V465I]  -0.0425
